{"source": "patent US20250129146A1", "about": "“COMBINED CANCER THERAPY WITH AN EPITHELIAL CELL ADHESION MOLECULE (EPCAM) INHIBITOR AND A WNT INHIBITOR” (ACADEMIA SINICA, priority 2021, published 2025)", "molecules": {"B1": {"name": "EpEX: extracellular domain of EpCAM, produced in house by Expi293 Expression System (protein)", "chain": "QEECVCENYKLAVNCFVNNNRQCQCTSVGAQNTVICSKLAAKCLVMKAEMNGSKLGRRAKPEGALQNNDGLYDPDCDESGLFKAKQCNGTSMCWCVNTAGVRRTDKDTEITCSERVRTYWIIIELKHKAREKPYDSKSLRTALQKEITTRYQLDPKFITSILYENNVITIDLVQNSSQKTQNDVDIADVAYYFEKDVKGESLFHSKKMDLTVNGEQLDLDPGQTLIYYVDEKAPEFSMQGLKAGVIAVIVVVVIAVVAGIVVLVISRKKRMAKYEKAEIKEMGEMHRELNA"}, "B2": {"name": "Wnt3A: recombinant Wnt3A (R & D systems) (protein, UniProt P56704 19-352, looked up)", "Protein Wnt-3a": "SYPIWWSLAVGPQYSSLGSQPILCASIPGLVPKQLRFCRNYVEIMPSVAEGIKIGIQECQHQFRGRRWNCTTVHDSLAIFGPVLDKATRESAFVHAIASAGVAFAVTRSCAEGTAAICGCSSRHQGSPGKGWKWGGCSEDIEFGGMVSREFADARENRPDARSAMNRHNNEAGRQAIASHMHLKCKCHGLSGSCEVKTCWWSQPDFRAIGDFLKDKYDSASEMVVEKHRESRGWVETLRPRYTYFKVPTERDLVYYEASPNFCEPNPETGSFGTRDRTCNVSSHGIDGCDLLCCGRGHNARAERRREKCRCVFHWCCYVSCQECTRVYDVHTCK"}, "B3": {"name": "EpAb2-6: anti-EpCAM (EpEX) neutralizing monoclonal antibody produced in mice by hybridoma; VH SEQ ID NO: 15, VL SEQ ID NO: 16 (antibody, V domains shown)", "VH": "VKLQESGPELKKPGETVKISCKASGYTFTDYSMHWVKQAPGKGLKWMGWINTETGEPTYADDFKGRFAFSLETSASTAYLQINNLKNEDTATYFCARTAVYWGQGTTVTVSS", "VL": "DIQMTQSPSSLSASLGERVSLTCRASQEISVSLSWLQQEPDGTIKRLIYATSTLDSGVPKRFSGSRSGSDYSLTISSLESEDFVDYYCLQYASYPWTFGGGTKLEIK"}}, "assay_type_in_all_cases": "cell-based, human", "key": {"[1]": {"test_system": "active β-Catenin", "test": "Nuclear translocation of β-Catenin (immunofluorescence staining; cell fractionation with western blot)", "procedure": "Cells (1×10^6) were seeded overnight and further allowed to grow in serum free conditions. Then cells were further treated with 20 μg/mL mEpAb2-6 or hEpAb2-6 or MT201 for 6 h or with 400 ng/mL LGK974 (MedChemExpress) for 9 h or combination as indicated. Samples were fractioned into cytosol and nuclear extracts using nuclear/cytosol fractionation kit (Biovision) according to the manufacturer's protocol. The fractions were then subjected to western blot analysis.\n(§1) For western blotting, cells were extracted using radioimmunoprecipitation assay (RIPA) buffer [(0.01 M sodium phosphate, pH 7.2), 150 mM NaCl, 2 mM EDTA, 50 mM NaF, 1% Nonidet P-40, 1% sodium deoxycholate, and 0.1% SDS)] containing phosphatase inhibitor (Roche) and protease inhibitor (Roche) cocktail. Equal amounts of protein were separated by SDS-PAGE and then transferred to PVDF membranes. The membranes were blocked with 3% BSA in TBST (Blocking solution) and incubated with necessary primary antibodies in the blocking solution overnight at 4° C. Membranes were then incubated with HRP-conjugated secondary antibodies in the blocking solution for 1 h at room temperature, and protein expression were detected. Antibodies used: anti-α-tubulin (Sigma), anti-EpCAM (abeam), anti-Active β-Catenin (Millipore), anti-total β-Catenin (abeam), anti-Frizzled 6 (CST), anti-Frizzled 7 (Santa Cruz Biotech), anti-LRP5 (abcam), anti-Phospho-LRP5 (abcam), anti-Phospho-LRP6 (CST), anti-LRP6 (CST) and anti-EpEX antibody EpAb3-5 (Produced in house), anti-ADAM17 (abcam), anti-phopho-ADAM17 (abcam), anti-Presenilin2 (abcam), anti-phospho-Presenilin2 (S327) (abcam), anti-phospho-Presenilin2 (S330) (abcam) and anti-Axin2 (CST).\nGlass slides were used in 24-well plates and coated with 0.1% gelatin. Further, 3×10^4 cells were seeded in serum free medium overnight. Cells were treated with 20 μg/mL EpAb2-6 for 6 h, or 400 ng/mL LGK974 (MedChemExpress) for 9 h or the combination. Cells were washed using ice-cold PBS and fixed with 4% paraformaldehyde for 15 min at RT and washed with ice-cold PBS. Further, cells were permeabilized using 0.1% triton-X in PBS for 20 min and subsequently washed with PBS. Cells were blocked with 3% BSA in PBS for 1 h at RT. Next, cells were treated with primary antibody anti-Active β-Catenin (Millipore) overnight. Then, cells were washed and treated with secondary antibody in 3% BSA containing PBS along with DAPI for 1 h at RT. Samples were then washed in PBS five times and mounted for microscopy. Nuclear β-Catenin intensities were calculated using IMARIS (Oxford Instruments) software."}, "[2]": {"test_system": "TCF", "test": "TCF activity (TOP-Flash TCF luciferase reporter)", "procedure": "Cells were plated at 5×10^3 cells per well and grown overnight in 12-well plates. Then, cells were transiently transfected with TOP-Flash TCF reporter plasmid (Millipore) using poly-jet transfection reagent (SignaGen). At 48 h post transfection, cells were treated with 20 µg/mL Anti-EpCAM EpAb2-6 (Produced in house) or MT201 (Produced in house) for 6 h or 400 ng/mL LGK974 (MedChemExpress) for 9 h or the combination, as indicated. In addition, cells were treated with EpEX (Produced in house by Expi293 Expression System) or recombinant Wnt3A (R & D systems) or the combination for 8 h. Finally, cells were lysed, and the luciferase assay was performed.\nThe cells were seeded in 24-well plates (1×10^4 cells/well) and incubated at 37° C. for 24 h. The culture media were refreshed, and the cells were transfected with respective reporter plasmids (TCF reporter or Wnt receptor promoter reporter) by PolyJET (SignaGen). The transfected efficiency was normalized by co-transfected with pRL-TK (20 ng) as an internal control. Additional treatments were conducted as indicated. Firefly luciferase and Renilla luminescence were measured 48 h post-transfection using the Dual-Glo Luciferase Assay System (Promega), according to the manufacturer's recommendations."}, "[3]": {"test_system": "HT29 and SW620 cells", "test": "Colony formation assay", "conditions": "for colony formation capacity: SW620 cells, exogenous Wnt3A, EpEX or combination", "procedure": "Cells were seeded in 12-well plate (5×10^3 cells per well) and treated with 20 µg/mL mEpAb2-6, hEpAb2-6 or MT201 (Produced in house) or 400 ng/mL LGK974 (MedChemExpress) or combination as indicated in which case the elements were directly added to the culture medium. The medium along with the treatment component were changed in every alternating day and the cells were allowed to grow for 10 days. On the tenth day, cells were washed and fixed with 4% paraformaldehyde and further stained with 1% crystal violet for 30 min. Colonies were washed 3 times with PBS, and images were taken. Furthermore, to measure colony density, the wells were incubated with 0.5% SDS shaking for 2 h at RT. The supernatants were collected, and the absorbance of the solution was taken at 570 nm using a microplate reader."}, "[4]": {"test_system": "HCT116, HT29 and SW620 cells", "test": "Tumorsphere assay", "conditions": "for sphere formation capacity: SW620 cells, exogenous Wnt3A, EpEX or combination", "procedure": "Cells were seeded in ultra-low adherent 6-well plates (5×10^4 cells per well) or 24-well plates (1×10^3 cells per well) and maintained in DMEM/F-12 supplemented with B27. Further, cells were treated with 20 μg/mL mEpAb2-6, hEpAb2-6 or MT201 (Produced in house), or 400 ng/mL LGK974 (MedChemExpress) or the combination, by direct addition to the culture medium. The entire culture medium, including the treatment component, was changed in every other day. Cells were cultured for 10 days, and on 10th day, spheres were counted and photographed under the microscope."}, "[5]": {"test_system": "Oct4, Sox2 and c-Myc", "test": "Stemness (pluripotency) factor expression (western blot, qPCR)", "conditions": "HT29 cells", "procedure": "as §1\n(§2) Total RNA was extracted using TRI reagent and 5 μg of the total RNA was further reverse-transcribed using oligo (dT) primer with reverse transcriptase. Quantitative real time RT-PCR (qPCR) was performed on cDNA using the Light Cycler 480 SYBR Green-I Master kit and the LightCycler480 System. The gene expression levels of each sample were normalized to the expression levels of glyceraldehyde 3-phosphate dehydrogenase (GAPDH) or β-actin."}, "[6]": {"test_system": "LRP5/6", "test": "Phosphorylation of LRP5/6 (western blot)", "procedure": "as §1"}, "[7]": {"test_system": "Wnt receptors (FZD6/7, LRP5/6)", "test": "Wnt receptor protein and mRNA expression (western blot, qPCR)", "conditions": "HCT116 cells", "procedure": "as §1, §2"}, "[8]": {"conditions": "HCT116 cells, exogenous EpEX, Wnt3A or combination"}, "[9]": {"conditions": "EpEX, Wnt3A or combination, protein and mRNA level"}, "[10]": {"conditions": "wild-type HCT116 cells, EpEX, recombinant Wnt3A or both"}, "[11]": {"conditions": "wild-type SW620 and HCT116 cells, EpEX, recombinant Wnt3A or the combination for 8 h"}, "[12]": {"conditions": "EpCAM-knockout cells, exogenous EpEX, LGK974 or both"}}, "data": [{"molecule": "MT201: adecatumumab, a human anti-EpCAM antibody that was subjected to clinical trials [reference compound]", "values": [{"measurement": "nuclear translocation of β-Catenin", "setting": "[1]; HT29 cells, 20 μg/mL hEpAb2-6 or MT201 for 6 h", "value": "did not show any significant effects"}, {"measurement": "TCF activity", "setting": "[2]; HT29 cells, 20 µg/mL antibody for 6 h", "value": "did not show any significant effects"}, {"measurement": "ability to inhibit colony formation", "setting": "[3]; comparison of EpAb2-6 with MT201, 20 g/mL", "value": "shows no activity"}, {"measurement": "ability to inhibit sphere formation", "setting": "[4]; comparison of EpAb2-6 with MT201, 20 μg/mL", "value": "shows no activity"}]}, {"molecule": "B1", "values": [{"measurement": "expression of pluripotency factors", "setting": "[5]; EpEX, Wnt3A or combination", "value": "induced expressions of pluripotency factors"}, {"measurement": "LRP5/6 phosphorylation", "setting": "[6]; [8]", "value": "increased LRP5/6 phosphorylation"}, {"measurement": "expression of Wnt receptors", "setting": "[7]; [9]", "value": "upregulated expressions of Wnt receptors"}, {"measurement": "nuclear accumulation of β-Catenin", "setting": "[1]; shEpCAM or KO-EpCAM HCT116 cells treated with exogenous EpEX", "value": "significant increase in nuclear accumulation of β-Catenin"}, {"measurement": "nuclear translocation of β-Catenin", "setting": "[1]; [10]", "value": "could increase"}, {"measurement": "TCF activity", "setting": "[2]; EpEX-treated EpCAM-knockdown and knockout HCT116 cells", "value": "significantly rescued the phenomenon"}, {"measurement": "TCF activity", "setting": "[2]; [11]", "value": "could increase"}, {"measurement": "colony formation", "setting": "[3]; [12]", "value": "reverted to wild-type levels"}, {"measurement": "colony formation capacity", "setting": "[3]", "value": "enhanced"}, {"measurement": "tumorsphere formation", "setting": "[4]; [12]", "value": "reverted to wild-type levels"}, {"measurement": "sphere formation capacity", "setting": "[4]", "value": "enhanced"}]}, {"molecule": "B2", "values": [{"measurement": "expression of pluripotency factors", "setting": "[5]; EpEX, Wnt3A or combination", "value": "induced expressions of pluripotency factors"}, {"measurement": "LRP5/6 phosphorylation", "setting": "[6]; [8]", "value": "increased LRP5/6 phosphorylation"}, {"measurement": "expression of Wnt receptors", "setting": "[7]; [9]", "value": "upregulated expressions of Wnt receptors"}, {"measurement": "nuclear translocation of β-Catenin", "setting": "[1]; [10]", "value": "could increase"}, {"measurement": "TCF activity", "setting": "[2]; [11]", "value": "could increase"}, {"measurement": "colony formation capacity", "setting": "[3]", "value": "enhanced"}, {"measurement": "sphere formation capacity", "setting": "[4]", "value": "enhanced"}]}, {"molecule": "B3", "values": [{"measurement": "expression of pluripotency factors", "setting": "[5]; LGK974, EpAb2-6 or combined treatment", "value": "decreased pluripotency factor expressions"}, {"measurement": "LRP5/6 phosphorylation", "setting": "[6]; SW620 cells, LGK974, EpAb2-6 or combined treatment", "value": "could decrease LRP5/6 phosphorylation"}, {"measurement": "expression of Wnt receptors", "setting": "[7]; EpAb2-6, LGK974 or combination", "value": "partially decrease"}, {"measurement": "nuclear β-Catenin", "setting": "[1]; wild-type HCT116 cells, 20 μg/mL EpAb2-6 for 6 h, 400 ng/mL LGK974 for 9 h or combination", "value": "significantly decreased nuclear β-Catenin signal"}, {"measurement": "colony formation", "setting": "[3]; HT29 cells, 20 µg/mL EpAb2-6, 400 ng/mL LGK974 or combination, 10 days", "value": "decreased"}, {"measurement": "tumorsphere formation", "setting": "[4]; HCT116 and HT29 cells, 20 μg/mL EpAb2-6, 400 ng/mL LGK974 or combination, 10 days", "value": "decreased"}, {"measurement": "cancer stemness properties", "setting": "[4]; summary statement, CRC cells, tumorsphere and colony formation", "value": "partially attenuate cancer sternness properties"}]}]}
